Data: patent US20230406948A1 (APEXIGEN, published 2023)
One block for each binder: values may come before it.

Assays:
[1] = target: T1, human CD40 on cells (native CD40 on Ramos cells, human B cells, human monocyte-derived dendritic cells); cell … (human, UniProt P25942 21-193); experiment: cell-based or functional assay
[2] = target: T1, human CD40 on cells (native CD40 on …); experiment: FACS on live Ramos cells, goat anti-human IgG PE
Experimental: (§1) In another experiment, the ability of the CD40 antibodies to bind to native CD40 protein was determined by FACS analysis with live Ramos cells. Ramos cells were harvested and blocked with 1.5 ml blocking buffer (0.1% BSA/PBS) for 30 minutes. Antibodies at various concentrations were added to cells and incubated for 1 hour. After washing, 50 ul Goat-anti-human IgG (H+L) PE antibody at 1:1000 dilution in blocking solution was added and incubated for 30 minutes. Cells were then washed with PBS and were re-suspended with […] and analyzed by FACS. The antibodies tested were the 19-21 rabbit anti-CD40 agonist antibody, SGN-40 developed by Seattle Genetics and CP870893 from Pfizer.

CD40-Fc protein = target: T2, CD40-Fc protein (Homo sapiens (Human), UniProt P25942 21-193); experiment: ELISA, plates coated with CD40-Fc protein, OD405nm
T2 construct: not shown: Fc
Source text: In order to assess the ability of the APX005 […] mutant to bind to CD40, APX005 S267E heavy chain and light chain plasmids were purified from transformed bacteria and transfected into 293-6E cell. Four days after transfection, antibody-containing culture supernatants were collected and tested for binding to CD40 using ELISA (ELISA plates coated with CD40-Fc protein).

[3] = target: T1, human CD40 on cells (native CD40 on …); experiment: FACS on live Ramos cells, goat anti-human IgG (H+L) PE
Experimental: as §1

[4] = target: T1, human CD40 on cells (native CD40 on …); experiment: cell-based or functional assay; remark: listed apart in the source

T1 sequence (P25942 21-193): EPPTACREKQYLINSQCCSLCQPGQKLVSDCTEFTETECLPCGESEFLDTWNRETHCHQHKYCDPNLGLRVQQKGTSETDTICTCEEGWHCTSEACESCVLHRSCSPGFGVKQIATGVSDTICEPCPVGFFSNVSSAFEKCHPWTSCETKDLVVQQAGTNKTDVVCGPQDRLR
T2 sequence (P25942 21-193 limits assumed): as the sequence (P25942 21-193) above

B1: APX005 S267E mutant (antibody, human IgG1, V domains shown)
VH: QVQLVESGGGVVQPGRSLRLSCAASGFSFSSTYVCWVRQAPGKGLEWIACIYTGDGTNYSASWAKGRFTISKDSSKNTVYLQMNSLRAEDTAVYFCARPDITYGFAINFWGPGTLVTVSS
VL: DIQMTQSPSSLSASVGDRVTIKCQASQSISSRLAWYQQKPGKPPKLLIYRASTLASGVPSRFSGSGSGTDFTLTISSLQPEDVATYYCQCTGYGISWPIGGGTKVEIK
EC50 (ng/ml), CD40 agonist activity: up-regulation of CD86 on human B cells [1]: 4.15 ng/mL
fold higher affinity than CP870893 [2]: 6 fold
EC50 (CD40-Fc protein): 0.0551 µg/mL
EC50 [3]: 0.0266 µg/mL

B2: c19-21, chimeric 19-21 (rabbit Fab and human IgG1) (antibody, V domains shown)
VH: QSLEESGGRLVTPGTPLTLTCTVSGFDLSSNAMNWVRQAPGKGLEWIGYITISGSAGYASWAKGRFTISKTSTTVDLKISSPTTEDTATYFCARGYNTMAIWGPGTLVTVSS
VL: AQVLTQTPSPVSAPVGGTVTINCQSSQNVLINNRLAWYQQKPGQPPKLLIYDASKLASGVPSRFKGSGSGTQFTLTISGVQCDDAATYYCQAGYSSGDGNAFGGGTEVVVK
Pro-apoptosis activity (IC50) [4]: 0.02 µg/mL

B6: cR-3, chimeric R-3 (rabbit Fab and human IgG1) (antibody, V domains shown)
VH: QSLEESGGDLVKPGASLTLTCTASGFSFSDSFWIAWVRQAPGKGLEWIGCIHALSSGSTYYANWARGRFTISKTSSTTVTLQMNSLTAADTATYFCARSYAGYADYNVATGLNLWGPGTLVTVSS
VL: DVVMTQTPSSASAAVGGTVTTKCQASQSIGSYLAWYQQKPGQRPKLLIYAASNLASGVPSRFKGSRSGTEYTLTISGVQREDAATYYCLGSFTGSDTTFGGGTELEIL
Pro-apoptosis activity (IC50) [4]: 0.57 µg/mL

B7: cR-8, chimeric R-8 (rabbit Fab and human IgG1) (antibody, V domains shown)
VH: QSLEESGGDLVKPGASLTLTCTASGFSFSSTYVCWVRQAPGKGLEWIACIYTGDGTNYSASWAKGRFTISKPSSTTVTLQMTSLTPADTATYFCARPDITYGFAINFWGPGTLVTVSS
VL: DIVMTQTPSSASEPVGGTVTIKCQASQSISSRLAWYQQKPGQPPKLLIYRASTLASGVPSRFKGSGSGTEFTLTISDLECADAATYYCQCTGYGISWPIGGGTEVVVK
Pro-apoptosis activity (IC50) [4]: 0.45 µg/mL

Second part, the binder after the results:

EC50 [3]: 0.0201 µg/mL
B3: 19-21 rabbit anti-CD40 agonist antibody (antibody, V domains shown)
VH: B2 VH
VL: B2 VL
notes: Whether the rabbit or the chimeric form was used there is not clear

Pro-apoptosis activity (IC50) [4]: 0.9 µg/mL
B4: cR-33, chimeric R-33 (rabbit Fab and human IgG1) (antibody, V domains shown)
VH: QSLEESGGDLVKPGASLTLTCTASGFSFSSSYWICWVRQAPGKGLEWIACINTGSSVTTVYARWAKGRFTISKASSTTVTLQMTSLTAADTATYFCARYIIPGYNFNLWGPGTLVTVSS
VL: AYDMTQTPASVEVAVGGTVTINCQASQSISSYLYWYQQKPGQPPKLLIYDASKLASGVPSRFKGSGSGTQFTLTITGVECADAATYYCQQGYSHINVDNIFGGGTEVVVK

EC50 (ng/ml), CD40 agonist activity: up-regulation of CD86 on human B cells [1]: 37 ng/mL
EC50 [3]: 0.171 µg/mL
B5: CP870893 (antibody, V domains shown)
VH: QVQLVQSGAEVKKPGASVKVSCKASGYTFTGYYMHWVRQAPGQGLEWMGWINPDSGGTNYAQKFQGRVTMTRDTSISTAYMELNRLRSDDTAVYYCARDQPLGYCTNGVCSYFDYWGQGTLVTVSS
VL: DIQMTQSPSSVSASVGDRVTITCRASQGIYSWLAWYQQKPGKAPNLLIYTASTLQSGVPSRFSGSGSGTDFTLTISSLQPEDFATYYCQQANIFPLTFGGGTKVEIK
